125 sequences from the supplement of paper PMC9112550, “Optimization of the antimicrobial peptide Bac7 by deep mutational scanning” (BMC Biology, 2022) can be followed below.
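Note: peptides expressed intracellularly from a pBAD plasmid library in pooled LB shake-flask culture, induced with 0.3% L-arabinose, DNA abundance read by NGS, three biological replicates, DESeq2 with apeglm shrinkage.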

The subject of the data set is Escherichia coli TOP10. The data set is described as follows: shrunken log2 fold change of peptide-encoding DNA abundance (4.5 h post-induction vs induction); higher = less antimicrobial activity (less host growth inhibition). Conditions: time post-induction: 4.5 h; library: site-saturation at positions 5, 18, 19, 20.
As for RRIRQRPPRLPRPRPRPMQKPRP, the “shrunken log2 fold change” value is 0.0524.

RRIRNRPPRLPRPRPRPKYFPRP: the “shrunken log2 fold change” value was -0.0727.

Take RRIRQRPPRLPRPRPRPSKKPRP: the “shrunken log2 fold change” value was 0.0216.

As to RRIRDRPPRLPRPRPRPRRVPRP, the “shrunken log2 fold change” value stood at 0.427.

On to RRIRHRPPRLPRPRPRPENMPRP, for which the “shrunken log2 fold change” value was -0.042.

For RRIRCRPPRLPRPRPRPAWRPRP, the “shrunken log2 fold change” value came out at 0.575.

Take RRIRRRPPRLPRPRPRPDYFPRP: the “shrunken log2 fold change” value was -0.0877.

On to RRIRTRPPRLPRPRPRPDNVPRP, for which the “shrunken log2 fold change” value is -0.881.

For RRIRIRPPRLPRPRPRPRNYPRP, the “shrunken log2 fold change” value stood at 0.0483.

Take RRIRDRPPRLPRPRPRPCFWPRP: the “shrunken log2 fold change” value was 0.612.

In the case of RRIRPRPPRLPRPRPRPWIIPRP, the “shrunken log2 fold change” value is -0.919.

In the case of RRIRFRPPRLPRPRPRPRQSPRP, the “shrunken log2 fold change” value was 0.443.

RRIRVRPPRLPRPRPRPFVDPRP: the “shrunken log2 fold change” value is -0.385.

On to RRIRFRPPRLPRPRPRPWFFPRP, for which the “shrunken log2 fold change” value is -0.393.

Regarding RRIRIRPPRLPRPRPRPRFWPRP, the “shrunken log2 fold change” value is 0.345.

Regarding RRIRMRPPRLPRPRPRPFDKPRP, the “shrunken log2 fold change” value is -0.0136.

RRIRFRPPRLPRPRPRPKKVPRP: the “shrunken log2 fold change” value is 0.102.

On to RRIRRRPPRLPRPRPRPYVDPRP, for which the “shrunken log2 fold change” value is -0.102.

As for RRIRHRPPRLPRPRPRPLCHPRP, the “shrunken log2 fold change” value is -0.44.

Take RRIRWRPPRLPRPRPRPVYGPRP: the “shrunken log2 fold change” value was -0.083.

RRIRNRPPRLPRPRPRPQEGPRP: the “shrunken log2 fold change” value turned out to be 0.0303.

For the sequence RRIRLRPPRLPRPRPRPRPQPRP, the “shrunken log2 fold change” value is 0.398.

With RRIRSRPPRLPRPRPRPYARPRP, the “shrunken log2 fold change” value is -0.351.

With RRIRTRPPRLPRPRPRPNWTPRP, the “shrunken log2 fold change” value stood at 0.00155.

As for RRIRMRPPRLPRPRPRPKAQPRP, the “shrunken log2 fold change” value came to 1.72.

For RRIRCRPPRLPRPRPRPKIFPRP, the “shrunken log2 fold change” value was -0.0936.

As to RRIRSRPPRLPRPRPRPKDFPRP, the “shrunken log2 fold change” value came to 0.0212.

RRIRPRPPRLPRPRPRPENSPRP: the “shrunken log2 fold change” value was -0.0155.

Take RRIRERPPRLPRPRPRPRKFPRP: the “shrunken log2 fold change” value is 0.173.

On to RRIRERPPRLPRPRPRPQKKPRP, for which the “shrunken log2 fold change” value worked out at 0.0196.

Take RRIRQRPPRLPRPRPRPHWDPRP: the “shrunken log2 fold change” value was -0.224.

Regarding RRIRHRPPRLPRPRPRPKKVPRP, the “shrunken log2 fold change” value amounted to 0.00707.

Take RRIRQRPPRLPRPRPRPLPMPRP: the “shrunken log2 fold change” value is 0.0747.

Consider RRIRTRPPRLPRPRPRPPRNPRP, for which the “shrunken log2 fold change” value is 1.27.

On to RRIRDRPPRLPRPRPRPSSNPRP, for which the “shrunken log2 fold change” value is -0.148.

On to RRIRERPPRLPRPRPRPSPIPRP, for which the “shrunken log2 fold change” value was -0.122.

Consider RRIRIRPPRLPRPRPRPDEEPRP, for which the “shrunken log2 fold change” value is -0.00176.

RRIRVRPPRLPRPRPRPKIAPRP: the “shrunken log2 fold change” value is 0.0892.

Take RRIRNRPPRLPRPRPRPVAIPRP: the “shrunken log2 fold change” value was -0.507.

Consider RRIRKRPPRLPRPRPRPHFPPRP, for which the “shrunken log2 fold change” value came to 0.179.

Consider RRIRARPPRLPRPRPRPMENPRP, for which the “shrunken log2 fold change” value worked out at 0.423.

RRIRIRPPRLPRPRPRPSVGPRP: the “shrunken log2 fold change” value was -0.261.

For RRIRQRPPRLPRPRPRPIEEPRP, the “shrunken log2 fold change” value is -0.00208.

Turning to RRIRCRPPRLPRPRPRPIHLPRP, the “shrunken log2 fold change” value was -0.193.

Take RRIRQRPPRLPRPRPRPYHYPRP: the “shrunken log2 fold change” value was -0.711.

Take RRIRSRPPRLPRPRPRPGSAPRP: the “shrunken log2 fold change” value was 0.231.

Consider RRIRPRPPRLPRPRPRPCEKPRP, for which the “shrunken log2 fold change” value turned out to be 0.0377.

Consider RRIRYRPPRLPRPRPRPPGTPRP, for which the “shrunken log2 fold change” value was -0.146.

As for RRIRLRPPRLPRPRPRPDNKPRP, the “shrunken log2 fold change” value is -0.357.

In the case of RRIRTRPPRLPRPRPRPRPQPRP, the “shrunken log2 fold change” value stood at 0.146.

As to RRIRCRPPRLPRPRPRPINVPRP, the “shrunken log2 fold change” value was -0.307.

For RRIRQRPPRLPRPRPRPGNGPRP, the “shrunken log2 fold change” value turned out to be 0.0197.

As to RRIRHRPPRLPRPRPRPKMYPRP, the “shrunken log2 fold change” value was -0.289.

Take RRIRQRPPRLPRPRPRPAPYPRP: the “shrunken log2 fold change” value is 0.204.

As for RRIRARPPRLPRPRPRPYCEPRP, the “shrunken log2 fold change” value turned out to be 0.0687.

For the sequence RRIRDRPPRLPRPRPRPYFLPRP, the “shrunken log2 fold change” value is -0.49.

As to RRIRMRPPRLPRPRPRPWGVPRP, the “shrunken log2 fold change” value stood at 0.187.

In the case of RRIRSRPPRLPRPRPRPVLYPRP, the “shrunken log2 fold change” value came to 1.03.

With RRIRYRPPRLPRPRPRPAPPPRP, the “shrunken log2 fold change” value was determined as 0.417.

On to RRIRPRPPRLPRPRPRPIEWPRP, for which the “shrunken log2 fold change” value stood at 0.015.

In the case of RRIRQRPPRLPRPRPRPRRYPRP, the “shrunken log2 fold change” value stood at 0.112.

Regarding RRIRSRPPRLPRPRPRPCNKPRP, the “shrunken log2 fold change” value is -0.225.

RRIRPRPPRLPRPRPRPPGNPRP: the “shrunken log2 fold change” value is 0.105.

As for RRIRHRPPRLPRPRPRPRDHPRP, the “shrunken log2 fold change” value amounted to 0.175.

In the case of RRIRPRPPRLPRPRPRPSPEPRP, the “shrunken log2 fold change” value was -0.0109.

Regarding RRIRIRPPRLPRPRPRPTENPRP, the “shrunken log2 fold change” value was 0.0227.

Consider RRIRARPPRLPRPRPRPVYFPRP, for which the “shrunken log2 fold change” value was -0.135.

For the sequence RRIRHRPPRLPRPRPRPNQGPRP, the “shrunken log2 fold change” value was -0.479.

As for RRIRWRPPRLPRPRPRPQITPRP, the “shrunken log2 fold change” value is -0.216.

RRIRERPPRLPRPRPRPMPVPRP: the “shrunken log2 fold change” value was -0.107.

As for RRIRGRPPRLPRPRPRPIMSPRP, the “shrunken log2 fold change” value was determined as 0.0881.

Consider RRIRYRPPRLPRPRPRPTGCPRP, for which the “shrunken log2 fold change” value was -0.0275.

Take RRIRGRPPRLPRPRPRPMYQPRP: the “shrunken log2 fold change” value is -0.0304.

Turning to RRIRIRPPRLPRPRPRPFIWPRP, the “shrunken log2 fold change” value is -0.242.

Turning to RRIRQRPPRLPRPRPRPFHDPRP, the “shrunken log2 fold change” value was -0.336.

Take RRIRCRPPRLPRPRPRPWCPPRP: the “shrunken log2 fold change” value was -0.281.

On to RRIRARPPRLPRPRPRPINRPRP, for which the “shrunken log2 fold change” value was determined as 0.0108.

With RRIRWRPPRLPRPRPRPDDVPRP, the “shrunken log2 fold change” value came out at 0.0399.

For the sequence RRIRYRPPRLPRPRPRPMSVPRP, the “shrunken log2 fold change” value is -0.0288.

With RRIRRRPPRLPRPRPRPFSDPRP, the “shrunken log2 fold change” value is -0.311.

Regarding RRIRTRPPRLPRPRPRPTCIPRP, the “shrunken log2 fold change” value was -0.503.

For the sequence RRIRTRPPRLPRPRPRPERQPRP, the “shrunken log2 fold change” value is -0.0252.

Take RRIRIRPPRLPRPRPRPRWMPRP: the “shrunken log2 fold change” value amounted to 0.341.

As for RRIRSRPPRLPRPRPRPCCIPRP, the “shrunken log2 fold change” value is -0.197.

On to RRIRARPPRLPRPRPRPLCVPRP, for which the “shrunken log2 fold change” value stood at 0.183.

For RRIRCRPPRLPRPRPRPKNGPRP, the “shrunken log2 fold change” value is 0.0379.

RRIRCRPPRLPRPRPRPVCHPRP: the “shrunken log2 fold change” value is -0.294.

RRIRTRPPRLPRPRPRPQAYPRP: the “shrunken log2 fold change” value is -0.629.

On to RRIRNRPPRLPRPRPRPWCPPRP, for which the “shrunken log2 fold change” value was -0.752.

Regarding RRIRVRPPRLPRPRPRPGGAPRP, the “shrunken log2 fold change” value was found to be 0.603.

Consider RRIRWRPPRLPRPRPRPNCIPRP, for which the “shrunken log2 fold change” value is -0.0807.

As to RRIRWRPPRLPRPRPRPPCYPRP, the “shrunken log2 fold change” value was -0.436.

As to RRIRQRPPRLPRPRPRPLEHPRP, the “shrunken log2 fold change” value is -0.109.

Turning to RRIRWRPPRLPRPRPRPLKNPRP, the “shrunken log2 fold change” value came out at 0.245.

In the case of RRIRERPPRLPRPRPRPLYGPRP, the “shrunken log2 fold change” value was -0.136.

Turning to RRIRFRPPRLPRPRPRPMPIPRP, the “shrunken log2 fold change” value was determined as 0.0193.

Regarding RRIRHRPPRLPRPRPRPKNWPRP, the “shrunken log2 fold change” value turned out to be 0.136.

With RRIRTRPPRLPRPRPRPQPKPRP, the “shrunken log2 fold change” value was 0.151.

On to RRIRLRPPRLPRPRPRPQYTPRP, for which the “shrunken log2 fold change” value was -0.909.

As for RRIRQRPPRLPRPRPRPSMRPRP, the “shrunken log2 fold change” value turned out to be 0.0637.

Consider RRIRYRPPRLPRPRPRPPQFPRP, for which the “shrunken log2 fold change” value was -0.213.

As to RRIRERPPRLPRPRPRPVQNPRP, the “shrunken log2 fold change” value was -0.0413.

For RRIRERPPRLPRPRPRPMYYPRP, the “shrunken log2 fold change” value was -0.241.

For RRIRFRPPRLPRPRPRPKWCPRP, the “shrunken log2 fold change” value was -0.183.

Consider RRIRTRPPRLPRPRPRPLVLPRP, for which the “shrunken log2 fold change” value is -0.162.

For RRIRKRPPRLPRPRPRPAWLPRP, the “shrunken log2 fold change” value came to 0.564.

Take RRIRIRPPRLPRPRPRPMRFPRP: the “shrunken log2 fold change” value is -0.0444.

On to RRIRMRPPRLPRPRPRPKSTPRP, for which the “shrunken log2 fold change” value came to 1.44.

RRIRCRPPRLPRPRPRPSFHPRP: the “shrunken log2 fold change” value is -0.841.

RRIRTRPPRLPRPRPRPFDAPRP: the “shrunken log2 fold change” value is -0.343.

On to RRIRNRPPRLPRPRPRPVVAPRP, for which the “shrunken log2 fold change” value is -0.0949.

As to RRIRPRPPRLPRPRPRPLNNPRP, the “shrunken log2 fold change” value was -0.541.

Turning to RRIRYRPPRLPRPRPRPGYKPRP, the “shrunken log2 fold change” value was -0.978.

As for RRIRIRPPRLPRPRPRPPCRPRP, the “shrunken log2 fold change” value amounted to 0.0264.

With RRIRFRPPRLPRPRPRPMTPPRP, the “shrunken log2 fold change” value was -0.202.

As for RRIRGRPPRLPRPRPRPVMLPRP, the “shrunken log2 fold change” value was determined as 0.317.

In the case of RRIRNRPPRLPRPRPRPKKPPRP, the “shrunken log2 fold change” value was -0.0506.

Regarding RRIRKRPPRLPRPRPRPVRAPRP, the “shrunken log2 fold change” value is 1.27.

In the case of RRIRSRPPRLPRPRPRPIRYPRP, the “shrunken log2 fold change” value was found to be 0.31.

Take RRIRNRPPRLPRPRPRPWQHPRP: the “shrunken log2 fold change” value stood at 0.178.

Turning to RRIRQRPPRLPRPRPRPLWKPRP, the “shrunken log2 fold change” value was -0.0262.

For the sequence RRIRSRPPRLPRPRPRPIELPRP, the “shrunken log2 fold change” value is -0.122.

As to RRIRYRPPRLPRPRPRPICQPRP, the “shrunken log2 fold change” value is -0.087.

RRIRHRPPRLPRPRPRPFLRPRP: the “shrunken log2 fold change” value was -0.173.

Consider RRIRNRPPRLPRPRPRPLEDPRP, for which the “shrunken log2 fold change” value stood at 0.0414.
